Biological target: HA-ELKS1αB

“GST-Rab6B Q72L (from UniProt P61294 1-208) (natural protein)” gave a fraction of synapses with mito-Rab6-tagged mitochondria in neurons co-expressing mito-Rab6BQL and HA-ELKS1αB, compared to inactive Rab6B (mito-Rab6BTN) or HA-ELKS1^∆955-971 of 2 fold.

Reference: paper PMC7360120
